*1 amine or outer side, *2 acyl side, *3 side chain or, on linkers, in order; H or OH if unused. Bridges are numbered along the chain shown (N, C = ends). Where no end group is shown, it is not given here. Side-chain parts run from the residue outwards. [ ]: non-standard residue; d: D form. S6H = (2S)-2-aminooct-7-enoic acid, C=CCCCC[C@H](N[*:1])C(=O)[*:2]; OXA12 = PEG spacer connecting glycine to cholesterol; dGly(6-heptenyl) = C=CCCCCC[C@@H](N)C(=O)O; Ala(5-hexenyl) = C=CCCCCC[C@H](N)C(=O)O; Gla = N[C@@H](CC(C(=O)O)C(=O)O)C(=O)O; R5H = not defined here; MA = not defined here
B1: (CONS[S7H^6,13]-GC)2 (peptide)
peptide: Ac-PVLDE[Ala(5-hexenyl)]REKLNE[Ala(5-hexenyl)]LEALKQKLKGCPVLDE[Ala(5-hexenyl)]REKLNE[Ala(5-hexenyl)]LEALKQKLKGC
modifications: disulfide 24-48; also: homodimer of two 24-residue chains listed as one 48-residue chain, second N-terminal acetyl not placed

Each binder was assayed against ATP-binding cassette transporter A1 (ABCA1) (mouse, UniProt P41233 1-2261) (assay: cell-based or functional assay).
Chain of ATP-binding cassette transporter A1 (ABCA1) (P41233 whole entry): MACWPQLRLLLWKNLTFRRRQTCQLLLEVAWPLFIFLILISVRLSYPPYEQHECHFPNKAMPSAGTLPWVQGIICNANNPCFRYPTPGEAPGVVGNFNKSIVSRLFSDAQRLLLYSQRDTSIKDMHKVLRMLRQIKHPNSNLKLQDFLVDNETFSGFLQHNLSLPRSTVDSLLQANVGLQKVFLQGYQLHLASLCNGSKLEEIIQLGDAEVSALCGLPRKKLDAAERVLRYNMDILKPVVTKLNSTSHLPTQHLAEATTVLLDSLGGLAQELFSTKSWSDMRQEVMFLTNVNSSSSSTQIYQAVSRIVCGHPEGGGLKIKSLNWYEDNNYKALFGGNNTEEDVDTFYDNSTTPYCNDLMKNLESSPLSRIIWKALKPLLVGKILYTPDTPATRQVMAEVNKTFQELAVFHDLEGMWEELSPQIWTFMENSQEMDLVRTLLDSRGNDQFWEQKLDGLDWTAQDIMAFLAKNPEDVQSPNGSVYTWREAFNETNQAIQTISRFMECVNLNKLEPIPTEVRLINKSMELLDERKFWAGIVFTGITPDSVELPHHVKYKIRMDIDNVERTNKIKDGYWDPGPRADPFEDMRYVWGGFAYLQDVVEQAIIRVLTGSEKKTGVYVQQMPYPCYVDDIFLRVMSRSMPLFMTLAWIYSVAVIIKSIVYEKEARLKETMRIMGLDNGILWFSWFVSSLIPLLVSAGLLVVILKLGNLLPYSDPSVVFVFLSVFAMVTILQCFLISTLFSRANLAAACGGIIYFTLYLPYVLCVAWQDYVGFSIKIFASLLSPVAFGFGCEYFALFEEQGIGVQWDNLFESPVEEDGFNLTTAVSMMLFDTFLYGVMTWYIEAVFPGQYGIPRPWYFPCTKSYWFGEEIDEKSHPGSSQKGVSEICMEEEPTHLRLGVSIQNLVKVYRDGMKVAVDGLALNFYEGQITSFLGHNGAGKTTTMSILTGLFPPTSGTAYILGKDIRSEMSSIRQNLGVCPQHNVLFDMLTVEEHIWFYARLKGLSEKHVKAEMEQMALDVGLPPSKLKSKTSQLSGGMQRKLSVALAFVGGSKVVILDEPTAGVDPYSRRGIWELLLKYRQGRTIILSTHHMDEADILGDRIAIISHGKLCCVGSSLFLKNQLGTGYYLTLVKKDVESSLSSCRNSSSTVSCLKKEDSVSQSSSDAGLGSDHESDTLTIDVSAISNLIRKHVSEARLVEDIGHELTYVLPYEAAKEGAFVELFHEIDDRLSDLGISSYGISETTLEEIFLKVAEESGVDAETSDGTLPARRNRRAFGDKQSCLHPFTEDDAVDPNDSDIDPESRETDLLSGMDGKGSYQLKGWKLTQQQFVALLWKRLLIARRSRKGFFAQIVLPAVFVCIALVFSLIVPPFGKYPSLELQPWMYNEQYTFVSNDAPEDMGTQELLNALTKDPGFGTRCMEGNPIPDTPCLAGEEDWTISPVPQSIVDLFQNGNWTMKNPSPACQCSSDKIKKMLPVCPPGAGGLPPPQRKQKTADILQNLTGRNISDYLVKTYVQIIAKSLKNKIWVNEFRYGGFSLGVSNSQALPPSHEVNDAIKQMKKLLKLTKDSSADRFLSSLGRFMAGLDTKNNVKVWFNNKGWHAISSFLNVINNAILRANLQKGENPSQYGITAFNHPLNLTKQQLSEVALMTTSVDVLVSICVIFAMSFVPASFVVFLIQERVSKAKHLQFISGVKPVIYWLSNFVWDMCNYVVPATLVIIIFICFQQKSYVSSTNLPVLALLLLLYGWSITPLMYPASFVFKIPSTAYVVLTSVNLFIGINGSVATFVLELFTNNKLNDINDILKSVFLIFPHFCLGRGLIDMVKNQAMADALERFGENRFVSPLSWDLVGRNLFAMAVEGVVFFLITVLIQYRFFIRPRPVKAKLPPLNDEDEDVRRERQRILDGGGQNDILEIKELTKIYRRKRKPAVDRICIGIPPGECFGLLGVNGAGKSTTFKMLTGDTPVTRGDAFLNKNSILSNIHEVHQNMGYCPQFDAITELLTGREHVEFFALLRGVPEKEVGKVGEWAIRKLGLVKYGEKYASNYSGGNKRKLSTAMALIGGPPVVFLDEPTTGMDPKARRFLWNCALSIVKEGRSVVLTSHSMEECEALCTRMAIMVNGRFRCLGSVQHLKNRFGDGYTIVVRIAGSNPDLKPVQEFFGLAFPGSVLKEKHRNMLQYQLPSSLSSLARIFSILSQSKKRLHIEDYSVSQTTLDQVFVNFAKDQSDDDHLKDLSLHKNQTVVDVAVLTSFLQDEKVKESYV

Binder | ABCA1-dependent cholesterol efflux, % at 30 uM | ABCA1-dependent cholesterol efflux EC50 | ABCA1-dependent cholesterol efflux, % at 100 uM
Ac-PVLDEFREKLNE[R5H]LEA[R5H]KQKLK (reading uncertain) [R5H [E13-L17]R5H OPEN] | < 3% |  | 
Ac-PVLDEFREKLNE[Ala(5-hexenyl)]LEALKQKLKPVLDEFREKLNE[Ala(5-hexenyl)]LEALKQKLK [CONS[S7H^13]2] |  | 41 µM | 
Ac-P[Ala(5-hexenyl)]LDE[Ala(5-hexenyl)]REKLNE[Ala(5-hexenyl)]L[Gla]ALKQ[Ala(5-hexenyl)]LK [CONS[S7H^2,6,13,20, GLA^15]] |  | 2.4 µM | 
Ac-PVLDEFRE[R5H]LNE[R5H]LEALKQKLK (reading uncertain) [R5H [K9-E13]R5H OPEN] |  | 46 µM | 
PXLDEXREKLNEXLXALKQKLK (not fully specified; N-terminal acetyl (Ac-Pro); S7H at 2, 6 and 13; Gla at 15) [CONS[GLA^15, S7H^2,6,13]] |  | 0.6 µM | 
B1 |  | 1.5 µM | 
Ac-[dP][dV][dL][dD][dE][dGly(6-heptenyl)][dR][dE][dK][dL][dN][dE][dGly(6-heptenyl)][dL][dE][dA][dL][dK][dQ][dK][dL][dK] [D-CONS[R7H^6,13]] |  |  | 17.7%
Ac-[dP][dV][dL][dD][dE][dF][dR][dE][dK][dL][dN][dE][dGly(6-heptenyl)][dL][dE][dA][dL][dK][dQ][dK][dL][dK] [D-CONS[R7H^13]] |  | 1.1 µM | 
Ac-[dP][dV][dL][dD][dE][Ala(5-hexenyl)][dR][dE][dK][dL][dN][dE][Ala(5-hexenyl)][dL][dE][dA][dL][dK][dQ][dK][dL][dK] (not fully specified (C-terminus)) [D-CONS[S7H^6,13]] |  | 3 µM | 
Ac-PVLDE[Ala(5-hexenyl)]REKLNE[Ala(5-hexenyl)]LEALKQKLKGC([MA-OXA12-Gly-cholesterol]) (not fully specified; reading uncertain) [CONS[S7H^6,13]-GC-OXA12-CHOLESTEROL] | 1.9% |  | 
Ac-[dP][dV][dL][dD][dE][S6H][dR][dE][dK][dL][dN][dE][dGly(6-heptenyl)][dL][dE][dA][dL][dK][dQ][dK][dL][dK] (not fully specified (C-terminus)) [D-CONS[S6H^6, R7H^13]] |  | 1.2 µM | 
Ac-[dP][dV][dL][dD][dE][dGly(6-heptenyl)][dR][dE][dK][dL][dN][dE][dE][dL][dE][dA][dL][dK][dQ][dK][dL][dK] (not fully specified (C-terminus)) [D-CONS[R7H^6]] |  |  | 19%
Ac-PVLDE[Ala(5-hexenyl)]REKLNE[Ala(5-hexenyl)]LEALKQKLKGC(branched mPEG 40 kDa) [CONS[S7H^6,13]-GC-PEG40] |  |  | 1%
Ac-P[Ala(5-hexenyl)]LDE[Ala(5-hexenyl)]REKLNE[Ala(5-hexenyl)]LEALKQ[Ala(5-hexenyl)]LK [CONS[S7H^2,6,13,20]] |  | 2 µM | 
